Laboratory results: the supplement of paper PMC12764529
± gives the half width of the 95% confidence interval.

Columns and labels:
[1] = folding stability dG unfold (combined trypsin and chymotrypsin); higher = more stable
Outline: (§1)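 Bayesian fitting of sequencing counts gave K50 for each design. Unfolding free energy followed by setting this against a sequence-predicted unfolded-state K50 and a shared folded-state K50, either per protease or with trypsin and chymotrypsin combined. The designs, under 80 residues and lacking cysteine, were digested in a PA-tagged cDNA display format at 11 threefold-diluted protease concentrations and without protease, and only those with AlphaFold2 dimer inter-PAE above 15 were kept.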

[2] = folding stability dG unfold from trypsin proteolysis; higher = more stable
Outline: as §1

[3] = folding stability dG unfold from chymotrypsin proteolysis; higher = more stable
Outline: as §1

Sequence	folding stability dG unfold [1]	folding stability dG unfold [2]	folding stability dG unfold [3]
SAGDWVPIEFTIFFPDPNMTIEEIADSALMNLGLPPEDVTVKIKNIHEQPDPDGRPYYHIEVKIYIPDNSAG [r5_528_TrROS]	2.75 ± 0.23 kcal/mol	1.7 ± 0.13 kcal/mol	3.17 ± 0.13 kcal/mol
SAGGSAGGSGSLRLRVRSPEQALEWLRRVLPPDFDLTPEELEELVRFLLATSEVTPDGYLLLRSAGGSAGGS [r12_983_TrMRF]	2.32 ± 0.042 kcal/mol	1.826 ± 0.018 kcal/mol	2.52 ± 0.051 kcal/mol
SAGGNKEHKVTLEIYIMMWPDPDNGQPYPMPLEIEAPYKNNDPEAAEADIKELLKEIPIPPWMKDMISAGGS [r16_40_TrROS]	0.988 ± 0.39 kcal/mol	1.19 ± 0.12 kcal/mol	0.692 ± 0.15 kcal/mol
SAGGSMMKVTIVDKDGKERVFTFPKDMTEEEVLERIKKELEAEGVEVEEVEVERREDGSLVIRVKKSAGGSA [r2_148_TrROS_Hall]	3.93 ± 0.14 kcal/mol	4.16 ± 0.4 kcal/mol	3.71 ± 0.064 kcal/mol
SAGGSAGGSNRLVFRFGGYYYVVEIKPPNGKEETIMMPPDDIDDLPKNWKVEVEPIKPGQPIPSAGGSAGGS [r12_419_TrROS]	1.18 ± 0.2 kcal/mol	1.09 ± 0.12 kcal/mol	1.46 ± 0.23 kcal/mol
SAGGSAGGSATQTIPFENPDGHPWTGTVEKRPDGMVKIDLTFPGGEKKEFYIPPGEEIRLPFSAGGSAGGSA [r18_115_TrROS]	0.42 ± 0.19 kcal/mol	0.775 ± 0.057 kcal/mol	0.0335 ± 0.24 kcal/mol
SMKIEPHPDGTVTFTIPAEFPDIPAEEIAALIEKALPPGVRLGEEITVERDPETGEVRVTAKVEVPPDAVSA [r9_1011_TrMRF]	2.74 ± 0.12 kcal/mol	2.49 ± 0.12 kcal/mol	2.81 ± 0.073 kcal/mol
SAGGMLVTFTTPDGKTVTVEVDSLEEAKKVIAEKLGLPPDTVLDVTVTDPVTGEVTSETVTIPVPVPESAGG [r13_145_JUSTAS]	3.96 ± 0.049 kcal/mol	3.3 ± 0.09 kcal/mol	3.99 ± 0.07 kcal/mol
SAGGSAGGMLTTQETSSDPATNLTTTTTTLTEKDASGNLVPLETTVTTTTSPPAPSTTAPTYAASAGGSAGG [r6_901_JUSTAS]	1.29 ± 0.089 kcal/mol	1.89 ± 0.061 kcal/mol	0.432 ± 0.024 kcal/mol
SDDKNMKPVKFKVEIEEERIEENGKKYIKIEVTWPGGNTVKIWFDPDKLIITFPVRSVEDVLEEVKDLIKSA [r9_662_TrROS]	3.06 ± 0.085 kcal/mol	2.19 ± 0.064 kcal/mol	3.52 ± 0.039 kcal/mol
SAGGSGMEAKLLEEALEAELKAKGYKVEVKVTVTKSFSVQEGGLPSSTTTVTIEITVRDPKTGKKVSAGGSA [r2_434_JUSTAS]	2.56 ± 0.16 kcal/mol	1.62 ± 0.09 kcal/mol	3.09 ± 0.1 kcal/mol
SAGSSLPPSLSKEEIVAALKSQGYTSVKEEKLPDPNKSRMVFTHPNSVVTVEFFPNSVTVTTVPLSVPSSAG [r5_899_JUSTAS]	0.968 ± 0.23 kcal/mol	0.0126 ± 0.28 kcal/mol	1.32 ± 0.16 kcal/mol
SAGGSAGGSKEKTYVIKVTITNENGEEFTLELTVTMTEEEAEELAKKLKELYPNAKVTIEKLPSAGGSAGGS [r12_268_TrROS_Hall]	4.13 ± 0.16 kcal/mol	4.16 ± 0.21 kcal/mol	4.09 ± 0.12 kcal/mol
SAGGSAGGSAGNTIEIEINGKPIYVEFEPLPEGMVKVKIYFPDGKKEEITLPANDPIKIGSAGGSAGGSAGG [r11_525_TrROS]	1.58 ± 0.13 kcal/mol	1.53 ± 0.068 kcal/mol	1.6 ± 0.045 kcal/mol
SAGPTVTVELEIRLPPELRGLSPEELAELLARELEEAGYTVEVVEVEEEDGYVTVRVRVTVPLPPPPPESAG [r5_80_TrROS_Hall]	3.52 ± 0.13 kcal/mol	3.59 ± 0.11 kcal/mol	3.29 ± 0.13 kcal/mol
SAGGAPLSSSEEVEALLKEGGAEFVSKTSVTITEPGVPVTVNVYTIRVKDPSSDKWTLVEVPSSLLSSAGGS [r16_271_JUSTAS]	0.409 ± 0.15 kcal/mol	0.192 ± 0.12 kcal/mol	0.429 ± 0.2 kcal/mol

Sequence	folding stability dG unfold [1]	folding stability dG unfold [2]	folding stability dG unfold [3]
SAGGSAGGSAGNKYLIKVKKKNGNKSEELEIEVEDNPEIAEKIAEELKKKGNIVSVEIKKASAGGSAGGSAG [r3_310_TrMRF]	0.66 ± 0.23 kcal/mol	0.761 ± 0.1 kcal/mol	0.403 ± 0.21 kcal/mol
SAGGSAGGSAGGKVGPGTTVTIVEVEVVGSKINPLGLVTTDFVVKKVEVVEVEKGADLKSAGGSAGGSAGGS [r10_826_JUSTAS]	0.0651 ± 0.12 kcal/mol	0.487 ± 0.041 kcal/mol	-0.775 ± 0.41 kcal/mol
SSVEELSPEQRREQLRELLRQIREARREGDPEEERRLLEELRRLIEQLPDEEREEVRRLLEELGLPVEELSA [r9_182_TrROS_Hall]	4.05 ± 0.19 kcal/mol	4.27 ± 0.21 kcal/mol	3.72 ± 0.19 kcal/mol
SAKKLDIKVDGIQRPENNVMILIRIDPGLPPEKDVTITIKGKNGHKQEIPYENDHIYIMVPAQDITIKISAG [r14_350_TrROS]	2.25 ± 0.34 kcal/mol	1.8 ± 0.077 kcal/mol	2.68 ± 0.045 kcal/mol
SAGGSASPSEVRTITATLPGGVVREFEVKMPPGTTVYIPEEGKTITVPPDSSLPLPPDVSVEVRLESAGGSA [r15_152_JUSTAS]	-0.148 ± 0.058 kcal/mol	-0.353 ± 0.017 kcal/mol	-0.106 ± 0.021 kcal/mol
PVKVIEIRVEDPEKTAEEILAELRKKLPEEVKELRLFIVTPDGRVREIEPGETLADLLKPGDTVRIVVVERS [r1_56_TrROS_Hall]	> 6 kcal/mol	4.81 ± 0.34 kcal/mol	5.66 ± 0.45 kcal/mol
SAGGSAGGSAMTVPLDTLTPERLRELLAENPERVVLKSADSVLVLSRDPATGRLTVTSHELRSAGGSAGGSA [r18_75_JUSTAS]	1.22 ± 0.022 kcal/mol	0.951 ± 0.011 kcal/mol	1.35 ± 0.014 kcal/mol
SSASAMAPLPVEVYTLTVTVVKPGGEEVGTYTFTFNSPEEAKAFLEAFAKEKGLTIKKATLTRTPDTSLSSA [r9_1226_JUSTAS]	4.16 ± 0.1 kcal/mol	2.7 ± 0.12 kcal/mol	4.59 ± 0.054 kcal/mol
SAGGSAGGSEPVTVMFWFDSPEEIDELIDELKGAGIKKVEMEPFPGRYWLTITVDGAEIHIMFSAGGSAGGS [r12_846_TrROS]	3.29 ± 0.14 kcal/mol	2.45 ± 0.067 kcal/mol	3.786 ± 0.031 kcal/mol
SAGGSAGGSAMLLPSEEEAEKAAAELRAKTGWRVTVEKVGTGEDGTVVYRLTVVPPDLPLESAGGSAGGSAG [r3_59_JUSTAS]	3.12 ± 0.06 kcal/mol	2.84 ± 0.048 kcal/mol	3.234 ± 0.019 kcal/mol
SAGGKITITVEYNKETNTVRIKITTEDGKEKELEINLENLTEEELKKLAEEIAKKLNPEKIKKVEIYPSAGG [r13_267_TrROS_Hall]	2.33 ± 0.13 kcal/mol	1.69 ± 0.11 kcal/mol	2.69 ± 0.12 kcal/mol
SAGGSAGGSAGGAPNAPKPVLVFAEVTVTSVEYDPETGELRIEVELPDGGEKLTFRLPLSAGGSAGGSAGGS [r10_427_TrMRF]	2.23 ± 0.054 kcal/mol	1.93 ± 0.031 kcal/mol	2.44 ± 0.031 kcal/mol
SMFKNVKSVHIYQDPIKGNNLIIVAETEEGTVELELPEDKAIEFLNTLKEKGFDIKVTHVEYLPVSPEYGSA [r9_607_TrMRF]	2.36 ± 0.081 kcal/mol	2.19 ± 0.064 kcal/mol	2.453 ± 0.011 kcal/mol
SAGMTLTIEVLIKVETPEEARKAAEELARRLAEEGYTVTVEVVKVEEVTLPDGSKYYRVTVKVTVEPAPSAG [r5_158_TrROS_Hall]	5.78 ± 0.31 kcal/mol	5.08 ± 0.38 kcal/mol	5.62 ± 0.15 kcal/mol
SAGGSAGGEWVIINIMFRFPPGDPNIKIEIKFPGLPKDMKIEYSIFPTDNWYYIMVSIWVPPNASAGGSAGG [r6_482_TrROS]	4.85 ± 0.34 kcal/mol	3.66 ± 0.29 kcal/mol	5.16 ± 0.15 kcal/mol
